Laboratory results reported in patent US20240117061A1 (WUHAN YZY BIOPHARMA, published 2024).

T1: recombinant human BCMA-his fusion protein (ACRO Biosystem, Cat. No. BCA-H522y) (human, UniProt Q02223 1-54)
T1 construct: extracellular domain; Bought protein; also called huBCMA-his; hu BCMA-his; not shown: His tag
T1 sequence (looked up): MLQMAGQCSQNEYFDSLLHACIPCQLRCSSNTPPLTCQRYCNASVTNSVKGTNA

B1: human-mouse chimeric antibody c-mAb3 (antibody, human IgG1, V domains shown)
VH: EVQLQQSGPELVKPGASVKILCKASGYTITDYNMDWVKRSHGKSLEWIGNINPHNGGSIYNQKFKGKATLTVDKSSSTAFMELRSLTSEDTAVYYCARGDATLVLDYWGQGTSLTVSS
VL: DIVLTQSPASLAVSLGQRATISCRASKSVSTSGLSYMHWYQQKPGQPPKVLIYLASNLESGVPARFSGSGSGTDFTLNIHPVEEEDAATYYCQHSRELPPTFGAGTKLELK
notes: not shown: human IgG1 heavy chain constant region, GenBank No. AK303185.1; human kappa light chain constant region, GenBank No. MG815648.1
B2: human-mouse chimeric antibody c-mAb2 (antibody, human IgG1, V domains shown)
VH: QVQLQQSDAELVKPGTSVKISCKVSGYTFTDHTIHWMKQRPEQGLEWIGYIYPRNGNTKYNEKFKGKATLTADKSSSTAYMHLNSLTSEDSAVYFCARYDYDGYFDVWGTGTTVTVSS
VL: DVVMTQTPLSLPVSLGDQASISCRSSQSHVHSDGHTYLHWYLQKPGQSPELLIYKVSNRFSGVPDRFSGSGSGTDFTLKISRVEAEDLGVYFCSQNTHFPWTFGGGTKLEIK
notes: as for B1

Assays:
[1] = target: T2, cynomolgus monkey BCMA on HEK293 cynoBCMA cells (cynomolgus monkey, UniProt A0A2K5UD97 1-183); experiment: flow cytometry on HEK293 cynoBCMA cells
T2 construct: whole, on cells
T2 sequence (A0A2K5UD97 entry or part of it): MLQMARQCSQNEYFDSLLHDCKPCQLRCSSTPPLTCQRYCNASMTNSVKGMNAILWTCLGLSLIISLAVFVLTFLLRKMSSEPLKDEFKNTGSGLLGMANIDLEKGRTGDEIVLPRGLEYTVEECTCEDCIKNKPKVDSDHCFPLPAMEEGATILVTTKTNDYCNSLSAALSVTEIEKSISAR
Procedure: Procedures: Preparation of cell suspensions: The cells were resuspended in PBS, and the cell density was adjusted to 2×10⁵ cells/well. Mouse antibodies were added to a 96-well plate at […] and serially 3-fold diluted from 3000 nM. The plate was incubated for 1 h at 4° C. 150 μL of precooled PBS containing 1% of FBS was added into the 96-well plate after the co-incubation with the primary antibody was finished. The mixtures were centrifuged at 300×g for 5 min and the supernatants were discarded. The above procedures were repeated once. The fluorescent secondary antibody PE […] (Biolegend, 409304) was added at 80 μL/well. The plate was incubated at 4° C. for 30 min. 150 μL of precooled PBS containing 1% of FBS was added into the 96-well plate after the co-incubation with the secondary antibody was finished. The mixtures were uniformly mixed with a pipette. The 96-well plate was centrifuged at 300×g for 5 min in a plate centrifuge and the supernatants were removed. The above procedures were repeated once. The cells were resuspended in 100 μL of PBS containing 1% of FBS and detected on a flow cytometry (BD Accuri™ C6).

[2] = target: T3, recombinant cynomolgus monkey cynoBCMA-his (ACRO Biosystem, Cat. No. BCA-052H7) (cynomolgus monkey, UniProt A0A2K5UD97 1-53); experiment: ELISA, coated antigen
T3 construct: extracellular domain; Bought protein; also called cynomolgus/rhesus macaque BCMA/TNFRSF17 protein; not shown: His tag
T3 sequence (A0A2K5UD97 entry or part of it): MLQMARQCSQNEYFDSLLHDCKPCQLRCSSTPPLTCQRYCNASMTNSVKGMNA
Method in brief: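 Plates coated overnight at 4° C with 0.5 μg/mL His-tagged BCMA antigen (human or cynomolgus) in PBS pH 7.4, then blocked with 3% BSA. Humanized antibodies in 3-fold serial dilutions (11 points) were bound 1 h at room temperature. Detection used HRP anti-His antibody and TMB, read as OD450.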

[3] = target: T1, recombinant human BCMA-his fusion …; experiment: competitive ELISA: huBCMA-his coated, varied antibody added first, then APRIL-biotin, streptavidin-peroxidase, OD450; blocked ligand APRIL
Procedure: The 96-well microplate was treated with 100 μL of 0.5 μg/mL huBCMA-his in PBS and incubated overnight at 4° C. The plate was then washed thrice with PBS washing buffer containing 0.1% of Tween-20 and blocked with 300 μL of PBS containing 1% of BSA for 2 h. 100 μL of each BCMA antibody was added to the plate. […] The plate was incubated at 37° C. for 1 h, and unbound secondary antibody was washed with PBS washing buffer containing 0.1% of Tween-20. The TMB chromogenic solution was added at 100 μL/well. After a 5-min reaction at room temperature, 2 M H₂SO₄ was added at 100 μL/well to terminate the reaction. The microplate was placed on a microplate reader (Molecular Devices, SPECTRA Max plus 384) and the absorbance OD450 value was read at 450 nm wavelength.

[4] = target: T3, recombinant cynomolgus monkey …; experiment: SPR (Biacore T200), anti-His capture on CM5, 1:1 fit
[5] = target: T1, recombinant human BCMA-his fusion …; experiment: competitive ELISA, coated huBCMA-his, competitor 83A10-biotin, antibody at 7 µg/mL

Binder | EC50 [1] [nM] | EC50 [2] [nM] | IC50 (read off the curve) [3] [µg/mL] | Kd [4] [nM] | koff [4] [s⁻¹] | kon [4] [M⁻¹ s⁻¹] | competition [5] [%]
B1 | 2.66 | 0.0248 | ~0.4 | 0.106 | 0.000373 | 3.54e+06 | –
B2 | – | – | – | – | – | – | 40
